The values below come from the supplement of paper PMC12458215.

± gives the uncertainty stated by the source.

The subject of this series is HEK293T. Put plainly: plasma membrane surface immunostaining intensity (anti-HA, deep receptor scanning) (arbitrary fluorescence units); higher = higher plasma membrane expression.

With “MLLCTARLVGLQLLISCCWAFACHSTESSPDFTLPGDYLLAGLFPLHSGCLQVRHRPEVTLCDRSCSFNEHGYHLFQAMRLGVEEINNSTALLPNITLGYQLYDVCSDSANVYATLRVLSLPGQHHIELQGDLLHYSPTVLAVIGPDSTNRAATTAALLSPFLVPMISYAASSETLSVKRQYPSFLRTIPNDKYQVETMVLLLQKFGWTWISLVGSSDDYGQLGVQALENQATGQGICIAFKDIMPFSAQVGDERMQCLMRHLAQAGATVVVVFSSRQLARVFFESVVLTNLTGKVWVASEAWALSRHITGVPGIQRIGMVLGVAIQKRAVPGLKAFEEAYARADKKAPRPCHKGSWCSSNQLCRECQAFMAHTMPKLKAFSMSSAYNAYRAVYAVAHGLHQLLGCASGACSRGRVYPWQLLEQIHKVHFLLHKDTVAFNDNRDPLSSYNIIAWDWNGPKWTFTVLGSSTWSPVQLNINETKIQWHGKDNQVPKSVCSSDCLEGHQRVVTGFHHCCFECVPCGAGTFLNKSDLYRCQPCGKEEWAPEGSQTCFPRTVVFLALREHTSWVLLAANTLLLLLLLGTAGLFAWHLDTPVVRSAGGRLCFLMLGSLAAGSGSLYGFFGEPTRPACLLRQALFALGFTIFLSCLTVRSFQLIIIFKFSTKVPTFYHAWVQNHGAGLFVMISSAAQLLICLTWLVVWTPLPAREYQRFPHLVMLECTETNSLGFILAFLYNGLLSISAFACSYLGKDLPENYNEAKCVTFSLLFNFVSWIAFFTTASVYDGKYLPAANMMAGLSSLSSGFGGYFLPKCYVILCRPDLNSTEHFQASIQDYTRRCGST [TAS1R1]”, where the note is “GPCR class: Taste”, the “plasma membrane surface immunostaining intensity” value came out at 124 ± 5.5.

With “MLLETQDALYVALELVIAALSVAGNVLVCAAVGTANTLQTPTNYFLVSLAAADVAVGLFAIPFAITISLGFCTDFYGCLFLACFVLVLTQSSIFSLLAVAVDRYLAICVPLRYKSLVTGTRARGVIAVLWVLAFGIGLTPFLGWNSKDSATNNCTEPWDGTTNESCCLVKCLFENVVPMSYMVYFNFFGCVLPPLLIMLVIYIKIFLVACRQLQRTELMDHSRTTLQREIHAAKSLAMIVGIFALCWLPVHAVNCVTLFQPAQGKNKPKWAMNMAILLSHANSVVNPIVYAYRNRDFRYTFHKIISRYLLCQADVKSGNGQAGVQPALGVGL [ADORA2B]”, the “plasma membrane surface immunostaining intensity” value (GPCR class: A) was found to be 1240 ± 140.

For the sequence “MLMKKNASFEDFFLLLGFSNWPHLEVVLFVVILIFYLITLIGNLFIIILSYLDSHLHTPMYFFLSNLSFLDLCYTTSSIPQLLVNLWGPEKTISYAGCTVQLYFVLALGTAECVLLVVMSYDRYAAVCRPLHYTVLMHPRFCRLLAAASWVSGFTTSALHSSFTFWIPLCRHRLVDHFFCEVPALLRLSCVDTQANELTLMVMSSIFVLIPLILILTSYGAIARAVLSMQSTTGLQKVLRTCGAHLMVVSLFFIPVMCMYLQPPSENSQDQGKFIALFYTVVTPSLNPLIYTFRNKDVRGAVKRLMGWEWGM [OR2J1]”, the “plasma membrane surface immunostaining intensity” value (GPCR class: A (Olfactory)) came out at 133 ± 36.

With “MLMNYSSATEFYLLGFPGSEELHHILFAIFFFFYLVTLMGNTVIIMIVCVDKRLQSPMYFFLGHLSALEILVTTIIVPVMLWGLLLPGMQTIYLSACVVQLFLYLAVGTTEFALLGAMAVDRYVAVCNPLRYNIIMNRHTCNFVVLVSWVFGFLFQIWPVYVMFQLTYCKSNVVNNFFCDRGQLLKLSCNNTLFTEFILFLMAVFVLFGSLIPTIVSNAYIISTILKIPSSSGRRKSFSTCASHFTCVVIGYGSCLFLYVKPKQTQAADYNWVVSLMVSVVTPFLNPFIFTLRNDKVIEALRDGVKRCCQLFRN [OR9A4]”, the “plasma membrane surface immunostaining intensity” value (GPCR class: A (Olfactory)) is 185 ± 75.

Consider “MLNFTDVTEFILLGLTSRREWQVLFFIIFLVVYIITMVGNIGMMVLIKVSPQLNNPMYFFLSHLSFVDVWFSSNVTPKMLENLLSDKKTITYAGCLVQCFFFIALVHVEIFILAAMAFDRYMAIGNPLLYGSKMSRVVCIRLITFPYIYGFLTSLAATLWTYGLYFCGKIEINHFYCADPPLIKMACAGTFVKEYTMIILAGINFTYSLTVIIISYLFILIAILRMRSAEGRQKAFSTCGSHLTAVIIFYGTLIFMYLRRPTEESVEQGKMVAVFYTTVIPMLNPMIYSLRNKDVKKAMMKVISRSC [OR5M3]”, for which, where the note is “GPCR class: A (Olfactory)”, the “plasma membrane surface immunostaining intensity” value came to 120 ± 24.

Turning to “MLNTTSVTEFLLLGVTDIQELQPFLFVVFLTIYFISVTGNGAVLMIVISDPRLHSLMYFFLGNLSYLDICYSTVTLPKMLQNFLSTHKAISFLGCISQLHFFHSLGSTESMLFAVMAFDLSVAICKPLRYTVIMNPQLCTQMAITIWVIGFFHALLHSVMTSRLNFCGSNRIHHFLCDIKPLLKLACGNTELNQWLLSTVTGTIAMGPFFLTLLSYFYIITYLFFKTRSCSMLCKALSTCASHFMVVILFYAPVLFTYIHPALESFMDQDRIVAIMYTVVTPVLNPLIYTLRNKEVKGALGRVIRRL [OR12D2]”, for the setting “GPCR class: A (Olfactory)”, the “plasma membrane surface immunostaining intensity” value is 126 ± 22.
